For assay [1], the target named is muscle-type nicotinic acetylcholine receptor from the electric organ of Torpedo californica (Torpedo californica (endogenous in electric organ)) (UniProt P02710). The assay can be described thus: radioligand binding.
The target is the same in assay [2]. The assay can be described thus: radioligand binding. The source holds these as a separate data set.

Where two headings read alike, the source gives them in different places.

Usually IC50 stands for the concentration that inhibits the measured activity by half. A higher IC50 goes with a need for much substance.

Chain of UniProt P02710 (P02710 25-461 limits assumed, chain 1 of 4): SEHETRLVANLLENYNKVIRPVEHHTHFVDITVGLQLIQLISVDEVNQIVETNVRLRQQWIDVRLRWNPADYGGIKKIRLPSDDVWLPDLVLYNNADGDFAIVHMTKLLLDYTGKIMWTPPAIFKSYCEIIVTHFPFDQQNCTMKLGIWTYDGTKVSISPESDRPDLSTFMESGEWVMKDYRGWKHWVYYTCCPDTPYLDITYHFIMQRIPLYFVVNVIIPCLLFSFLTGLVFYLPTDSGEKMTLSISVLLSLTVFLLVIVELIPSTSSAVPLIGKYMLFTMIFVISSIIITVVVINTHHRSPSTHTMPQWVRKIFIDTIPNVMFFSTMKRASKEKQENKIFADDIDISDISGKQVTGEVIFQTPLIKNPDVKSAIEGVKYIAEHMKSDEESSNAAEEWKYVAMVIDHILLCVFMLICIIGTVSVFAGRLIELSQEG
Chain of UniProt P02710 (P02712 25-493 limits assumed, chain 2 of 4, further chain): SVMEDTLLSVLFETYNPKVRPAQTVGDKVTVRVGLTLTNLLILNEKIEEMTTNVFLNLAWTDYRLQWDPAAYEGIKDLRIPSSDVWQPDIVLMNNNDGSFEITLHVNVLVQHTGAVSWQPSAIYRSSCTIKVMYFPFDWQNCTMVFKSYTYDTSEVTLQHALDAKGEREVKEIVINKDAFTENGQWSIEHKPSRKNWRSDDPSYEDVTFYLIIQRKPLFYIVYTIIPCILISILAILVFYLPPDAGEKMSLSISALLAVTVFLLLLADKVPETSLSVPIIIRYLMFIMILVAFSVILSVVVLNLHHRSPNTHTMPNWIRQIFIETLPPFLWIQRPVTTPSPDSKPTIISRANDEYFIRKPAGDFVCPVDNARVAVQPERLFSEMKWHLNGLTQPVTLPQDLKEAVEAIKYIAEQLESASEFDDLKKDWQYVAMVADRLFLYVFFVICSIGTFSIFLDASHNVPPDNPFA
Chain of UniProt P02710 (P02714 18-506 limits assumed, chain 3 of 4, further chain): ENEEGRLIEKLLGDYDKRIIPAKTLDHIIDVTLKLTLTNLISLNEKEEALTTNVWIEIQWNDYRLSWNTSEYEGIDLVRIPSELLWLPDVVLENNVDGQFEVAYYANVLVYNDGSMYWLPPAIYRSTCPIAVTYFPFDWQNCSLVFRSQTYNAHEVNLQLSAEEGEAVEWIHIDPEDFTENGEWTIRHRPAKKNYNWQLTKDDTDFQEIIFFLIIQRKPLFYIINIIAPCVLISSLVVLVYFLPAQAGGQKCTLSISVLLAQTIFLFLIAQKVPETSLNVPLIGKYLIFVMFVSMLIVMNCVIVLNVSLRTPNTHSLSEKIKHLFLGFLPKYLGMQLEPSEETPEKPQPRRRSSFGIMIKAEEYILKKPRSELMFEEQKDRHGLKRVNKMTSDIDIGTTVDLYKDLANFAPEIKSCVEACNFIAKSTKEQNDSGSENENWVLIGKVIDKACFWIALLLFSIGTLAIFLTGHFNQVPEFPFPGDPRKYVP
Chain of UniProt P02710 (P02718 22-522 limits assumed, chain 4 of 4, further chain): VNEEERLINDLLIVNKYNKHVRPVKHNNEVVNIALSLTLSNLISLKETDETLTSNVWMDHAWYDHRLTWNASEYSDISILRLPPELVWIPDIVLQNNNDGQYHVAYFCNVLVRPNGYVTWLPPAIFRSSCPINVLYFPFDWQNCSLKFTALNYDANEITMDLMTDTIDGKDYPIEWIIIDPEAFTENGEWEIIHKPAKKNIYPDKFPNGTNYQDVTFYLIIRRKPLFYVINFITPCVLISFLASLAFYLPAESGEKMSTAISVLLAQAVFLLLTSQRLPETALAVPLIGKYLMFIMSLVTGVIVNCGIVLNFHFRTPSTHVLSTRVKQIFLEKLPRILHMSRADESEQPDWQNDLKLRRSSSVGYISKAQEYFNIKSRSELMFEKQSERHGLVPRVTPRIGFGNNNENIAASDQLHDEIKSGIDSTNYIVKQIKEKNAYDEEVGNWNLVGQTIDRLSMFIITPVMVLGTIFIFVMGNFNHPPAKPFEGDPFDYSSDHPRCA

B1: synthetic SLURP-1 (natural protein)
chain: LKCYTCKEPMTSASCRTITRCKPEDTACMTTLVTVEAEYPFNQSPVVTRSCSSSCVATDPDSIGAAHLIFCCFRDLCNSEL
On to B1, for which the IC50 in assay [1] was 3.92 µM; in assay [2], 4.05 µM.

B2: recombinant SLURP-1 with one additional N-terminal Met residue (natural protein)
chain: MLKCYTCKEPMTSASCRTITRCKPEDTACMTTLVTVEAEYPFNQSPVVTRSCSSSCVATDPDSIGAAHLIFCCFRDLCNSEL
Consider B2, for which the results for the IC50 in assay [1] and in assay [2] were 9.55 µM and 10.7 µM, respectively.

The values are drawn from paper PMC10707033.
